Measured values reported in US20140087995A1 (published 2014).
Numbered stars: 1 amine (or outer) side, 2 acyl side, 3 side chain; on linkers, the order of the positions; unused ones are H or OH. Bridge positions count the residues as written; N and C are the ends. Side chains are listed from the residue outwards. Ends that are not written are not given here. * marks the point of attachment. C20 diacid = O=C(O)CCCCCCCCCCCCCCCCCCC(=O)*; γGlu = O=C(O)[C@H](CCC(=O)[*:2])N[*:1]; AEEA = NCCOCCOCC(=O)O

T1: rat calcitonin receptor (rat, UniProt P32214 25-516)
T1 construct: whole, on cells; also called rCTR; rat calcitonin (a) receptor
T1 sequence (looked up): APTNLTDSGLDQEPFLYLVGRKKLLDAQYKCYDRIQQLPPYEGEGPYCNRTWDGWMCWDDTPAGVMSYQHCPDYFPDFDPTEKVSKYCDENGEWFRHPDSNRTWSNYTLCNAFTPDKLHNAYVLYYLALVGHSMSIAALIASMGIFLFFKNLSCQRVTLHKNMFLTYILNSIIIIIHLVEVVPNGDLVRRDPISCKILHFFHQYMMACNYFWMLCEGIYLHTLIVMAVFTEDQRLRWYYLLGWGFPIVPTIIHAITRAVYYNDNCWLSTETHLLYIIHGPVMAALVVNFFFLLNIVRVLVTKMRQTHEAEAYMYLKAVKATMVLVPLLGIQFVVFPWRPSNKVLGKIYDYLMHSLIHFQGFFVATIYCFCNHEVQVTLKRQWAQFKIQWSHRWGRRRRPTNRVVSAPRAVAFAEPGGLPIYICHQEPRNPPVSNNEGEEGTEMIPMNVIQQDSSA

T2: human calcitonin receptor (human, UniProt P30988 25-474)
T2 construct: whole, on cells; also called hCTR; hCT
T2 sequence (looked up): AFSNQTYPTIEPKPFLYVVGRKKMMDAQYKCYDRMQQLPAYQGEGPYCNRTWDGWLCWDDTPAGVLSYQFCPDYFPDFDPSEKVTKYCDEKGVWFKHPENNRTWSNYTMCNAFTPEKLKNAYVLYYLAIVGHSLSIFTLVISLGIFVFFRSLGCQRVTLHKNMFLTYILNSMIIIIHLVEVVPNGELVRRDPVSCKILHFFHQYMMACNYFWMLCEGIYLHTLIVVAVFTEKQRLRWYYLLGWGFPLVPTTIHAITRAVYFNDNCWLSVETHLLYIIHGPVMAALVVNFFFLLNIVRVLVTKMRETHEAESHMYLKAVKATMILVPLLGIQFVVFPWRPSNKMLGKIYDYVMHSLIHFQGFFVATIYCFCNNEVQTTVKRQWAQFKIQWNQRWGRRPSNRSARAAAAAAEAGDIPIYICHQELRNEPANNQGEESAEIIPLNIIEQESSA

T3: rat amylin receptor (rat calcitonin receptor + rat RAMP 3) (rat, UniProt P32214 25-516; Q9JJ73 23-147)
T3 construct: whole, on cells; also called rAmylin-R; rat amylin 3(a) receptor
T3 sequence (looked up) 1: T1 sequence (looked up)
T3 sequence (looked up) 2: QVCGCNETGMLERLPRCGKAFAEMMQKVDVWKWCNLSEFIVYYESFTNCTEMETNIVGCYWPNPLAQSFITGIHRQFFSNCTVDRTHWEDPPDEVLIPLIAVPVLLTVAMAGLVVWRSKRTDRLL

B1: N^ε1-[2-[2-[2-[[(4S)-4-carboxy-4-(19-carboxynonadecanoylamino)butanoyl]amino]ethoxy]ethoxy]acetyl]-[Gly14,Arg17,Pro21,Pro27,Pro31]-h-amylin (peptide)
peptide: K([AEEA-γGlu-C20 diacid])CNTATCATQRLAGFLRHSSPNFGAIPSSTPVGSNTY-NH2
modifications: disulfide 2-7; N-terminus assumed
SMILES: CC[C@H](C)[C@H](NC(=O)[C@H](C)NC(=O)CNC(=O)[C@H](Cc1ccccc1)NC(=O)[C@H](CC(N)=O)NC(=O)[C@@H]1CCCN1C(=O)[C@H](CO)NC(=O)[C@H](CO)NC(=O)[C@H](Cc1c[nH]cn1)NC(=O)[C@H](CCCNC(=N)N)NC(=O)[C@H](CC(C)C)NC(=O)[C@H](Cc1ccccc1)NC(=O)CNC(=O)[C@H](C)NC(=O)[C@H](CC(C)C)NC(=O)[C@H](CCCNC(=N)N)NC(=O)[C@H](CCC(N)=O)NC(=O)[C@@H](NC(=O)[C@H](C)NC(=O)[C@@H]1CSSC[C@H](NC(=O)[C@@H](N)CCCCNC(=O)COCCOCCNC(=O)CC[C@H](NC(=O)CCCCCCCCCCCCCCCCCCC(=O)O)C(=O)O)C(=O)N[C@@H](CC(N)=O)C(=O)N[C@@H]([C@@H](C)O)C(=O)N[C@@H](C)C(=O)N[C@@H]([C@@H](C)O)C(=O)N1)[C@@H](C)O)C(=O)N1CCC[C@H]1C(=O)N[C@@H](CO)C(=O)N[C@@H](CO)C(=O)N[C@H](C(=O)N1CCC[C@H]1C(=O)N[C@H](C(=O)NCC(=O)N[C@@H](CO)C(=O)N[C@@H](CC(N)=O)C(=O)N[C@H](C(=O)N[C@@H](Cc1ccc(O)cc1)C(N)=O)[C@@H](C)O)C(C)C)[C@@H](C)O
notes: synthetic analogue of human amylin; also called compound 71
B2: N^ε1-[2-[2-[2-[[(4S)-4-carboxy-4-(19-carboxynonadecanoylamino)butanoyl]amino]ethoxy]ethoxy]acetyl]-[His14,Arg17,Pro21,Pro27,Pro31]-h-amylin (peptide)
peptide: K([AEEA-γGlu-C20 diacid])CNTATCATQRLAHFLRHSSPNFGAIPSSTPVGSNTY-NH2
modifications: disulfide 2-7; N-terminus assumed
SMILES: CC[C@H](C)[C@H](NC(=O)[C@H](C)NC(=O)CNC(=O)[C@H](Cc1ccccc1)NC(=O)[C@H](CC(N)=O)NC(=O)[C@@H]1CCCN1C(=O)[C@H](CO)NC(=O)[C@H](CO)NC(=O)[C@H](Cc1c[nH]cn1)NC(=O)[C@H](CCCNC(=N)N)NC(=O)[C@H](CC(C)C)NC(=O)[C@H](Cc1ccccc1)NC(=O)[C@H](Cc1c[nH]cn1)NC(=O)[C@H](C)NC(=O)[C@H](CC(C)C)NC(=O)[C@H](CCCNC(=N)N)NC(=O)[C@H](CCC(N)=O)NC(=O)[C@@H](NC(=O)[C@H](C)NC(=O)[C@@H]1CSSC[C@H](NC(=O)[C@@H](N)CCCCNC(=O)COCCOCCNC(=O)CC[C@H](NC(=O)CCCCCCCCCCCCCCCCCCC(=O)O)C(=O)O)C(=O)N[C@@H](CC(N)=O)C(=O)N[C@@H]([C@@H](C)O)C(=O)N[C@@H](C)C(=O)N[C@@H]([C@@H](C)O)C(=O)N1)[C@@H](C)O)C(=O)N1CCC[C@H]1C(=O)N[C@@H](CO)C(=O)N[C@@H](CO)C(=O)N[C@H](C(=O)N1CCC[C@H]1C(=O)N[C@H](C(=O)NCC(=O)N[C@@H](CO)C(=O)N[C@@H](CC(N)=O)C(=O)N[C@H](C(=O)N[C@@H](Cc1ccc(O)cc1)C(N)=O)[C@@H](C)O)C(C)C)[C@@H](C)O
notes: synthetic analogue of human amylin; also called compound 61
B3: N^ε1-[2-[2-[2-[[(4S)-4-carboxy-4-(19-carboxynonadecanoylamino)butanoyl]amino]ethoxy]ethoxy]acetyl]-[His14,Arg17,Pro21,Pro27,Pro34]-h-amylin (peptide)
peptide: K([AEEA-γGlu-C20 diacid])CNTATCATQRLAHFLRHSSPNFGAIPSSTNVGPNTY-NH2
modifications: disulfide 2-7; N-terminus assumed
SMILES: CC[C@H](C)[C@H](NC(=O)[C@H](C)NC(=O)CNC(=O)[C@H](Cc1ccccc1)NC(=O)[C@H](CC(N)=O)NC(=O)[C@@H]1CCCN1C(=O)[C@H](CO)NC(=O)[C@H](CO)NC(=O)[C@H](Cc1c[nH]cn1)NC(=O)[C@H](CCCNC(=N)N)NC(=O)[C@H](CC(C)C)NC(=O)[C@H](Cc1ccccc1)NC(=O)[C@H](Cc1c[nH]cn1)NC(=O)[C@H](C)NC(=O)[C@H](CC(C)C)NC(=O)[C@H](CCCNC(=N)N)NC(=O)[C@H](CCC(N)=O)NC(=O)[C@@H](NC(=O)[C@H](C)NC(=O)[C@@H]1CSSC[C@H](NC(=O)[C@@H](N)CCCCNC(=O)COCCOCCNC(=O)CC[C@H](NC(=O)CCCCCCCCCCCCCCCCCCC(=O)O)C(=O)O)C(=O)N[C@@H](CC(N)=O)C(=O)N[C@@H]([C@@H](C)O)C(=O)N[C@@H](C)C(=O)N[C@@H]([C@@H](C)O)C(=O)N1)[C@@H](C)O)C(=O)N1CCC[C@H]1C(=O)N[C@@H](CO)C(=O)N[C@@H](CO)C(=O)N[C@H](C(=O)N[C@@H](CC(N)=O)C(=O)N[C@H](C(=O)NCC(=O)N1CCC[C@H]1C(=O)N[C@@H](CC(N)=O)C(=O)N[C@H](C(=O)N[C@@H](Cc1ccc(O)cc1)C(N)=O)[C@@H](C)O)C(C)C)[C@@H](C)O
notes: synthetic analogue of human amylin; also called compound 68
B4: N^ε1-[2-[2-[2-[[(4S)-4-carboxy-4-(19-carboxynonadecanoylamino)butanoyl]amino]ethoxy]ethoxy]acetyl]-[His14,Arg17,Pro21,Pro27,Arg34]-h-amylin (peptide)
peptide: K([AEEA-γGlu-C20 diacid])CNTATCATQRLAHFLRHSSPNFGAIPSSTNVGRNTY-NH2
modifications: disulfide 2-7; N-terminus assumed
SMILES: CC[C@H](C)[C@H](NC(=O)[C@H](C)NC(=O)CNC(=O)[C@H](Cc1ccccc1)NC(=O)[C@H](CC(N)=O)NC(=O)[C@@H]1CCCN1C(=O)[C@H](CO)NC(=O)[C@H](CO)NC(=O)[C@H](Cc1c[nH]cn1)NC(=O)[C@H](CCCNC(=N)N)NC(=O)[C@H](CC(C)C)NC(=O)[C@H](Cc1ccccc1)NC(=O)[C@H](Cc1c[nH]cn1)NC(=O)[C@H](C)NC(=O)[C@H](CC(C)C)NC(=O)[C@H](CCCNC(=N)N)NC(=O)[C@H](CCC(N)=O)NC(=O)[C@@H](NC(=O)[C@H](C)NC(=O)[C@@H]1CSSC[C@H](NC(=O)[C@@H](N)CCCCNC(=O)COCCOCCNC(=O)CC[C@H](NC(=O)CCCCCCCCCCCCCCCCCCC(=O)O)C(=O)O)C(=O)N[C@@H](CC(N)=O)C(=O)N[C@@H]([C@@H](C)O)C(=O)N[C@@H](C)C(=O)N[C@@H]([C@@H](C)O)C(=O)N1)[C@@H](C)O)C(=O)N1CCC[C@H]1C(=O)N[C@@H](CO)C(=O)N[C@@H](CO)C(=O)N[C@H](C(=O)N[C@@H](CC(N)=O)C(=O)N[C@H](C(=O)NCC(=O)N[C@@H](CCCNC(=N)N)C(=O)N[C@@H](CC(N)=O)C(=O)N[C@H](C(=O)N[C@@H](Cc1ccc(O)cc1)C(N)=O)[C@@H](C)O)C(C)C)[C@@H](C)O
notes: synthetic analogue of human amylin; also called compound 84
B5: N^ε1-[2-[2-[2-[[(4S)-4-carboxy-4-(19-carboxynonadecanoylamino)butanoyl]amino]ethoxy]ethoxy]acetyl]-[His14,Arg17,Pro21,Pro27,His34]-h-amylin (peptide)
peptide: K([AEEA-γGlu-C20 diacid])CNTATCATQRLAHFLRHSSPNFGAIPSSTNVGHNTY-NH2
modifications: disulfide 2-7; N-terminus assumed
SMILES: CC[C@H](C)[C@H](NC(=O)[C@H](C)NC(=O)CNC(=O)[C@H](Cc1ccccc1)NC(=O)[C@H](CC(N)=O)NC(=O)[C@@H]1CCCN1C(=O)[C@H](CO)NC(=O)[C@H](CO)NC(=O)[C@H](Cc1c[nH]cn1)NC(=O)[C@H](CCCNC(=N)N)NC(=O)[C@H](CC(C)C)NC(=O)[C@H](Cc1ccccc1)NC(=O)[C@H](Cc1c[nH]cn1)NC(=O)[C@H](C)NC(=O)[C@H](CC(C)C)NC(=O)[C@H](CCCNC(=N)N)NC(=O)[C@H](CCC(N)=O)NC(=O)[C@@H](NC(=O)[C@H](C)NC(=O)[C@@H]1CSSC[C@H](NC(=O)[C@@H](N)CCCCNC(=O)COCCOCCNC(=O)CC[C@H](NC(=O)CCCCCCCCCCCCCCCCCCC(=O)O)C(=O)O)C(=O)N[C@@H](CC(N)=O)C(=O)N[C@@H]([C@@H](C)O)C(=O)N[C@@H](C)C(=O)N[C@@H]([C@@H](C)O)C(=O)N1)[C@@H](C)O)C(=O)N1CCC[C@H]1C(=O)N[C@@H](CO)C(=O)N[C@@H](CO)C(=O)N[C@H](C(=O)N[C@@H](CC(N)=O)C(=O)N[C@H](C(=O)NCC(=O)N[C@@H](Cc1c[nH]cn1)C(=O)N[C@@H](CC(N)=O)C(=O)N[C@H](C(=O)N[C@@H](Cc1ccc(O)cc1)C(N)=O)[C@@H](C)O)C(C)C)[C@@H](C)O
notes: synthetic analogue of human amylin; also called compound 80

The binders below were run against T1, rat calcitonin receptor (assay: ratio of binding IC50s: rat calcitonin receptor over rat amylin receptor (reference)).

Ratio rCT/rAmylin binding	Binder
162	B1
39.7	B2
122	B3
94.3	B4
36.2	B5

Each binder was assayed against T2, human calcitonin receptor (assay: ratio of binding IC50s: human calcitonin receptor over human amylin receptor (reference)).
How it was run: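 Competition binding by SPA with cell membranes (35 ng/μL) and SPA beads in 50 mM Hepes pH 7.4 with 1 mM CaCl2, 5 mM MgCl2, 0.1% OA and 0.02% Tween20. Incubated 120 min at 25 °C with shaking, then counted.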

Ratio hCT/hAmylin binding	Binder
32	B1
66.7	B2
64.4	B3
120	B4
68.1	B5

Each binder was assayed against T1, rat calcitonin receptor (assay: SPA competition with 125I-calcitonin, membranes of BHK cells with rat calcitonin receptor (Assay VIII)).

IC50	Binder
44.8 nM	B1
33.4 nM	B2
28.5 nM	B3
477 nM	B4
60.4 nM	B5

These binders were tested against T3, rat amylin receptor (rat calcitonin …) (assay: SPA competition with 125I-rat amylin, membranes of BHK cells with rat calcitonin receptor + rat RAMP3 (Assay VI)).

IC50	Binder
0.276 nM	B1
0.842 nM	B2
0.234 nM	B3
5.05 nM	B4
1.67 nM	B5
